From patent US20250115677A1, “Anti-CEA Antibody Drug Conjugates and Methods of Use” (BeiGene Switzerland GmbH, priority 2022, published 2025) come the findings set out here.

In assay [1] the target is T1, CEACAM6 (bar group in Fig. 9B, flow cytometry) (human, UniProt P40199).
T1 construct: on cells (flow cytometry)
T1 sequence (single chain, looked up): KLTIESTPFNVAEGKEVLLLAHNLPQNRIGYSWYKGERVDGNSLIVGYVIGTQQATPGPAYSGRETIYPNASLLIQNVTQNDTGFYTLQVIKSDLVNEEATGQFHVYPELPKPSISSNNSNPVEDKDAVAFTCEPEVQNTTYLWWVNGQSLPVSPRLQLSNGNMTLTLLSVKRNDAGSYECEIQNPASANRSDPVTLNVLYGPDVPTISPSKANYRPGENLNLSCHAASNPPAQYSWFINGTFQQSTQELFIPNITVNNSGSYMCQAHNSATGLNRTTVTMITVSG
Kind of assay: flow cytometry, Alexa Fluor 647 anti-human IgG Fc. As to the method:
(§1) Cell fluorescence was quantified using a flow cytometer (Guava easyCyte™ 8HT, Merck-Millipore, USA). For antigen ELISA, CEACAM1(SEQ ID NO:64) (Cat. No. 10822-H08H, Sino Biological, China), CHIM (SEQ ID NO:63), CEA (SEQ ID NO:55) or CEACAM6 (SEQ ID NO:57) were coated in 96-well plates at a concentration of 10 μg/ml overnight at 4° C.
(In flow cytometry, cells or beads pass a laser one at a time.)

Assay [2] concerns the target T2, cynoCEA (Cat.:CE5-C52H5, Acrobiosystem) (cyno).
T2 chain: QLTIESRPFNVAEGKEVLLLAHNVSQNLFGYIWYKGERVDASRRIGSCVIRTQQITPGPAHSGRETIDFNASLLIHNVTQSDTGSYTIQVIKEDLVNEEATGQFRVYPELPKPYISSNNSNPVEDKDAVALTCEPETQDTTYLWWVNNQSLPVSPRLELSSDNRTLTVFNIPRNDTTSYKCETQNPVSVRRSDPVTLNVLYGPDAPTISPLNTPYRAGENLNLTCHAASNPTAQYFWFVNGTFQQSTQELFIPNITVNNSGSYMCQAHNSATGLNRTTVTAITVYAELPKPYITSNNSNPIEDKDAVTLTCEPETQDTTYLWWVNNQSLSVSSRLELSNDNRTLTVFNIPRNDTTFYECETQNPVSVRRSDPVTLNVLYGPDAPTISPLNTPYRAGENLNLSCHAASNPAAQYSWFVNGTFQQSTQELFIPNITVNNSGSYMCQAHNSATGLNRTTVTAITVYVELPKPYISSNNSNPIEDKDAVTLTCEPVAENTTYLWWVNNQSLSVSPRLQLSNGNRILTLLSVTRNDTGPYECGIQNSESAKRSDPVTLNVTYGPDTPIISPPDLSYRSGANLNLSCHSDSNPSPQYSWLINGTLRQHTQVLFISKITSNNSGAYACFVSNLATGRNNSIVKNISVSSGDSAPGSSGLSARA
The experiment in a line: SPR (BIAcore T-200); antibody captured on anti-human IgG chip, antigen flowed (1.37-2150 nM). A general note: SPR reads the build-up and loss of mass on a sensor chip optically.

Assay [3] concerns the target T3, CEACAM3 on transiently transfected HEK293 cells (Homo sapiens (Human), UniProt P40198 35-252).
T3 sequence: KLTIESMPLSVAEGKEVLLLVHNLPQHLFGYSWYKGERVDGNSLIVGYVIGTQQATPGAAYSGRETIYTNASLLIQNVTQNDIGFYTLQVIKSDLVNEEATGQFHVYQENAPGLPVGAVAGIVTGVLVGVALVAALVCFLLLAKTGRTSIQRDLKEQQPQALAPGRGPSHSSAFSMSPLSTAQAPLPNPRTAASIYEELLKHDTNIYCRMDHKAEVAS
The experiment in a line: flow cytometry on transiently transfected HEK293 cells. As to the method: as §1

Assay [4] has as its target T4, CEACAM7 on transiently transfected HEK293 cells (Homo sapiens (Human), UniProt Q14002 36-242).
T4 sequence: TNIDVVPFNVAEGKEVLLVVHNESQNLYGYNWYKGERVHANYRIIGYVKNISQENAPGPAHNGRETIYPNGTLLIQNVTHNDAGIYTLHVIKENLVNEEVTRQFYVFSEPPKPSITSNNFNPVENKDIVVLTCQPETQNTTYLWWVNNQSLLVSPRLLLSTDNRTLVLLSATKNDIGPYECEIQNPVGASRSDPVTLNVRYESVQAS
Described as above. As to the method:
as §1

Assay [5] has as its target T5, CEACAM8 on transiently transfected HEK293 cells (Homo sapiens (Human), UniProt P31997 35-320).
T5 sequence: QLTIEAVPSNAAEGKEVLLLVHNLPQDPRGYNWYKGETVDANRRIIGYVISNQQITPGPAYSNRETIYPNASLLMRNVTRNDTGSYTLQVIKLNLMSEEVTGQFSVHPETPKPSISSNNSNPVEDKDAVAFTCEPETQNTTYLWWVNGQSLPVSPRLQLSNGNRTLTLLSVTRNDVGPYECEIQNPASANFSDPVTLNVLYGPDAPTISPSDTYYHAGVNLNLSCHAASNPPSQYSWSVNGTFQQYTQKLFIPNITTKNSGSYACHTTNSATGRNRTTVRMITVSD
Described as above. As to the method:
as §1

B1: BGA5384 (antibody, human IgG1, kappa, V domains shown)
VH: QVQLVQSGAEVKKPGASVKVSCKASGYIFTSYYLHWVRQAPGQGLEWIGYINPQTGKTSYAQKFQGRVTMTRDTSTSTVYMELSSLRSEDTAVYYCAREYGNYNYPLDYWGQGTLVTVSS
VL: DIQMTQSPSSLSASVGDRVTITCRASENQYGYLAWYQQKPGKVPKLLIYNYKNLVEGVPSRFSGSGSGTDFTLTISSLQPEDVATYYCQHHLGTPYTFGQGTKVEIKR
notes: BGA6710 with Y57K in VH; human IgG1 format; also called BGA7592-1K
A word on the Kd: it is a measure of binding affinity in units of concentration. Low readings indicate higher affinity, high ones lower affinity. In the case of B1, the binding result in assay [1] was “no binding”; in assay [3] it was “no binding (tested: 2 µg/ml)”; in assay [4] it was “no binding (tested: 2 µg/ml)”; in assay [5], “no binding (tested: 2 µg/ml)”. The same molecule returned a Kd in assay [2] of 0.0199 µM.
